# Experimental data as given in publication doi:10.1101/2023.06.06.543845.
# Biological target: Mycobacterium thermoresistibile NrdI (Mycobacterium thermoresistibile)
# Assay: cryo-EM structure
substance,measurement,value
Mycobacterium thermoresistibile NrdF2 (enzyme),stoichiometry N (NrdF2 per NrdI),2
